Target: T1, Purified FLAG-tagged HPV18 E1 (human papillomavirus type 18, UniProt P06789 1-657)
T1 construct: E1 helicase of human papillomavirus type 18; also called F18E1; source: Sf9 cells, recombinant baculovirus (pFastBac1), purified; not shown: FLAG, N-terminal, kept
T1 sequence: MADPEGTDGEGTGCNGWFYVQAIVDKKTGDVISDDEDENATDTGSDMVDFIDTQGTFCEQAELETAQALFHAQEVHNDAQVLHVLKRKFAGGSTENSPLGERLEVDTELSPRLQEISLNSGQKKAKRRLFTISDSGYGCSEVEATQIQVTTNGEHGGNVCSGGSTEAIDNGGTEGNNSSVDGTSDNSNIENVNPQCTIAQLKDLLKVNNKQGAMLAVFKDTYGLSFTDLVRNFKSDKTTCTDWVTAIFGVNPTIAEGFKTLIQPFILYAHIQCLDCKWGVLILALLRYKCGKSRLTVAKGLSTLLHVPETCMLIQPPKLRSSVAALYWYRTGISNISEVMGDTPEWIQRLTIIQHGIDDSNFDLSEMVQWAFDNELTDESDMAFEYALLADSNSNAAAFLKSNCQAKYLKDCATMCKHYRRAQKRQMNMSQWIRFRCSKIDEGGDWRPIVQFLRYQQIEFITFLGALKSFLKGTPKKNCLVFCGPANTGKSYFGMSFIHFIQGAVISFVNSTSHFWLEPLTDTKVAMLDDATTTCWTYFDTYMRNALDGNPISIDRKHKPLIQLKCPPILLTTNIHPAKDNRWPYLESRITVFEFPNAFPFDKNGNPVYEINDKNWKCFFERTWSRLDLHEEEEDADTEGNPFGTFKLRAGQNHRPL
Test: co-IP; 1 ug purified H16E1 and 4 ug purified F18E1 in 200 ul binding buffer (20 mM Tris-HCl pH 8.0, 150 mM NaCl, 2 mM MgCl2, 0.01% NP-40); IP with anti-FLAG antibody and protein G magnetic beads, 1 h at 4°C; blot with anti-6xHis antibody
Settings: both partners purified

B1: Purified 6xHis-tagged HPV16 E1 (enzyme)
chain: MADPAGTNGEEGTGCNGWFYVEAVVEKKTGDAISDDENENDSDTGEDLVDFIVNDNDYLTQAETETAHALFTAQEAKQHRDAVQVLKRKYLVSPLSDISGCVDNNISPRLKAICIEKQSRAAKRRLFESEDSGYGNTEVETQQMLQVEGRHETETPCSQYSGGSGGGCSQYSSGSGGEGVSERHTICQTPLTNILNVLKTSNAKAAMLAKFKELYGVSFSELVRPFKSNKSTCCDWCIAAFGLTPSIADSIKTLLQQYCLYLHIQSLACSWGMVVLLLVRYKCGKNRETIEKLLSKLLCVSPMCMMIEPPKLRSTAAALYWYKTGISNISEVYGDTPEWIQRQTVLQHSFNDCTFELSQMVQWAYDNDIVDDSEIAYKYAQLADTNSNASAFLKSNSQAKIVKDCATMCRHYKRAEKKQMSMSQWIKYRCDRVDDGGDWKQIVMFLRYQGVEFMSFLTALKRFLQGIPKKNCILLYGAANTGKSLFGMSLMKFLQGSVICFVNSKSHFWLQPLADAKIGMLDDATVPCWNYIDDNLRNALDGNLVSMDVKHRPLVQLKCPPLLITSNINAGTDSRWPYLHNRLVVFTFPNEFPFDENGNPVYELNDKNWKSFFSRTWSRLSLHEDEDKENDGDSLPTFKCVSGQNTNTL
notes: E1 helicase of human papillomavirus type 16; H16E1 gene cloned into pET-30; The pET-30 vector may add further vector-derived residues; also called H16E1; source: Escherichia coli BL21(DE3) pLysS (pET-30), purified
  binding result: binds

Reference: article PMC3904167, “Replication interference between human papillomavirus types 16 and 18 mediated by heterologous E1 helicases” (Virology Journal, 2014)
